Experimental data reported in the nanobody polyreactivity screen of Harvey et al. (2022).

Assay: yeast display, Sf9 membrane polyspecificity reagent, FACS + sequencing; frameworks hold sequencing errors
Method in brief: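 Nanobodies came from a synthetic yeast display library in Saccharomyces cerevisiae BJ5465, induced with galactose for 36–48 hours and stained for 1 hour at 4 °C with 10% biotinylated, detergent-solubilized Sf9 membrane reagent. Cells were enriched on streptavidin microbeads and then FACS-sorted, with low and high (top ~1%) gates set on anti-HA fluorescence for expression and streptavidin fluorescence for reagent binding. Each polyreactivity label reflects the gate a clone came from. Genes were amplified by colony PCR, sequenced by MiSeq 2 × 250 and filtered by CDR length.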

**Q.** For “QVQIVESGGGIVQAGGSLRLSCAASGFIFVFNAMGWNRKAPGKERELVAAINGGDNTNYADSVKGRFTISRDNAKNTVYLQINSLKPEDTAVYYCAAEGEDSMWTGYDYDYWGQGTQVTVSS”, which “polyreactivity (PSR sort gate)” value is on record?
**A.** low polyreactivity

**Q.** Which “polyreactivity (PSR sort gate)” value does the source give for “QVQIVESGGGIVQAGGSLRLSCAASGRTLQTYVMGWYRQSPGKEREWVAAITRGGGSTYYADSVKGRFTISRDNAKNTVYLQMNSLKPEDTAVYYCAASALRFNSSFSHWYNYWGQGTQVTVSS” here?
**A.** high polyreactivity

**Q.** With “QVQIVESGGGIVQAGVSLRLICAASGFTFIDNTMGWYRQAPGKERELVAAISSDGRTNYADSVKGRFTISRDNAKNNVYLQKNSLKPEYTAVYYCASEDYYWYVTGDLYHTAVYYWGQGTQVTVSS” as the sequence, how does the “polyreactivity (PSR sort gate)” value read?
**A.** low polyreactivity

**Q.** With “QVQIVESGGGLFQAGGSLRLSCAASGRIFDPYSMGWYRQAPGKERELVASISWSGGRTYYADSVKGRFTISRDNAKNTVYLQMNSLKPEDTAVYYCARRFYKGTSKTNLFDFWGQVTQVTVSS” as the sequence, how does the “polyreactivity (PSR sort gate)” value read?
**A.** high polyreactivity

**Q.** Which “polyreactivity (PSR sort gate)” value does the source give for “QVQIVESGGGLLQAGGSLRLSCAASGRIFRRNAMGWYRQATGKERELVAAISKSGGSTYYADSVKGRFTISRDNAKNTVYLQMNSLKPEDTAVYYCAAEYSDRYDYWGQGTQVTVSS” here?
**A.** high polyreactivity

**Q.** With “QVQIVESGGGLVDAGGSLRLSCAASGRTFPPYAMGWYRQAPGKERELVAAISGSGASTYYADSVKGRFTISRDNAKNTVKLQWISQKPEDTAVYSWARYRGYWGRYYGVHYGYWGQGTQVTVSS” as the sequence, how does the “polyreactivity (PSR sort gate)” value read?
**A.** high polyreactivity

**Q.** With “QVQIVESGGGLVQAAGSLRLSCPASGRIFSDYAMGWYRQAPGKERELVAVITRGGDNTHYADSVKGRFTISRDNAKNTVYFQMNSLKPEDTAVYYCAAGFVYFRLRRYFWRDYWGQGTQVTVSS” as the sequence, how does the “polyreactivity (PSR sort gate)” value read?
**A.** low polyreactivity

**Q.** Which “polyreactivity (PSR sort gate)” value does the source give for “QVQIVESGGGLVQAGASLRLSCAASGLIFPQKVMGWYIQAPGNERVLVAAISSGTITNYADSVKGRFTISRDNAKNSVYLQMNSLKPEDTADYFCAAEEDKKTFDYWGQGTQVTVSS” here?
**A.** low polyreactivity

**Q.** For “QVQIVESGGGLVQAGATLRLSCDASGITIEGYAMGWYRQAPGKERELVAAIRSSGTSTYYADSVKGRFTITRDFAKNTVYLQMNSLKPEDTAVYYCNRARSSSRYDYWGQGTQVTVSS”, which “polyreactivity (PSR sort gate)” value is on record?
**A.** low polyreactivity

**Q.** With “QVQIVESGGGLVQAGCSLRISCAASGRTFYRYAMGWYRQAPGKEREFVAAISWRGGSTRYADSVKGRFTISRDNAKNTVYLQLNSLKPEVTAVYYCNADPQRSVSYTDQYRPVWYGYWGQGTQVTVSS” as the sequence, how does the “polyreactivity (PSR sort gate)” value read?
**A.** high polyreactivity

**Q.** Which “polyreactivity (PSR sort gate)” value does the source give for “QVQIVESGGGLVQAGGILRLSCAASGNTFGYYAMGWYRQAPGKEWELVAAISRGGGSTYYADSVKGRFTISRDNAKNTVYLQMNRLKPEDTAVYYCARRYRLSTSWSYRVGYWGQGTQVTVSS” here?
**A.** high polyreactivity

**Q.** Which “polyreactivity (PSR sort gate)” value does the source give for “QVQIVESGGGLVQAGGSLRFSCADSGFTFYSYAIVWYRQAPGKERELVAAISWSGGSTYYADSVKGRFTISRDNAKNTVYLQMNSLKPEDTAVYFCNAPYIGEHYYWGQGTQVTVSS” here?
**A.** high polyreactivity

**Q.** For “QVQIVESGGGLVQAGGSLRISCAASGLIYSSYGMGWYRQAPGKERELVAAISSGGSTYYADSVKGRFSISRDNAKNTVYLQKKSLKPEDTAVYYCADGVLYPYWYSTYYPDCQYYYWGHGTQVTVSS”, which “polyreactivity (PSR sort gate)” value is on record?
**A.** low polyreactivity

**Q.** For “QVQIVESGGGLVQAGGSLRISCAASGRTFSWNPMGWYRQAPGKERELVAGITGRGRSTYYADSVKGRFTISRDNAKLTVYLQMNSLTPEDTAVYYCAADSYRSSSPYGYWGQGTQVTVSS”, which “polyreactivity (PSR sort gate)” value is on record?
**A.** high polyreactivity

**Q.** With “QVQIVESGGGLVQAGGSLRISCSASGRTLRSYAMGWYRHAPGKERELVAAISRSGGSTNYADSVKGRFTISHDNAKNTVYLQMNSLKPEETAVYYCNTYSTSWKMDYWGQGTKVTVSS” as the sequence, how does the “polyreactivity (PSR sort gate)” value read?
**A.** high polyreactivity

**Q.** Which “polyreactivity (PSR sort gate)” value does the source give for “QVQIVESGGGLVQAGGSLRLSCAASGFIFGANAMGWYRQAPGKEREFVAAISSSGGRYELRRSVKGRFTISRDKAKNTVYLQMNSLKPEDTAVYYCATPYPTGRPRHYYWGQGTQVTVSS” here?
**A.** high polyreactivity

**Q.** With “QVQIVESGGGLVQAGGSLRLSCAASGFTIPRYAMGWYRQAPGKERELVAAISRAGRTYYADSVKGRFTISRDNAKNTVYLLMTSLKPEDTAVYYCNSQYLKPGDYWGHGTQVTVSS” as the sequence, how does the “polyreactivity (PSR sort gate)” value read?
**A.** high polyreactivity

**Q.** Which “polyreactivity (PSR sort gate)” value does the source give for “QVQIVESGGGLVQAGGSLRLSCAASGFTSQFYAMGWYRQAPGKEMELVAAISSGSSTYYADSVKGRFTSSRDNAKNTVYLQMNSLKPEDTAVYYCATTHKTLRRYDSWGQGTKVTVSS” here?
**A.** low polyreactivity

**Q.** Which “polyreactivity (PSR sort gate)” value does the source give for “QVQIVESGGGLVQAGGSLRLSCAASGIIFYRYAMGWSRQAPGKERELVAAITWSGVSTSYADSVKGRFTISRDNAKNTVYLQMNSLKPEVTAVYDCNKDPGTLYGDMDSWGQGTQVSVSS” here?
**A.** low polyreactivity

**Q.** With “QVQIVESGGGLVQAGGSLRLSCAASGITLSYNAMGWYRPATEKDRELVAGISYSGGRTYYADSVKGRFTISRDNAKNTVYLQMYSLKPEVTAVYYCATDLYISFRYGGYFWGQGTQVTVSS” as the sequence, how does the “polyreactivity (PSR sort gate)” value read?
**A.** high polyreactivity

**Q.** Which “polyreactivity (PSR sort gate)” value does the source give for “QVQIVESGGGLVQAGGSLRLSCAASGLTFILYAMGWYRQAPGKERELVAAISYDGGSTYYADSVKGRFTISRDNAKNTVYLQMNSLKPEDTAVYYCAADSYYYQGYRRYNYDYWGQGTQVTVSS” here?
**A.** high polyreactivity

**Q.** Which “polyreactivity (PSR sort gate)” value does the source give for “QVQIVESGGGLVQAGGSLRLSCAASGRIFIRYSMGWYRHAPGIERELVAAISSGGRTYYADSVKGRFTISRDNATNTVYLQMNSLNPEDTAVYYCARASSIARYDNWGQGTQVTVSS” here?
**A.** high polyreactivity
